Laboratory results as given in patent publication US20250263504A1 (Takeda / Millennium, published 2025).
Where “and” joins values, the source holds several entries; their conditions need not be identical. Identical values can stand only once.

T1: Factor XIIa (FXIIa) (UniProt P00748 20-372; P00748 373-615, limits assumed)
T1 construct: the description speaks of human FXIIa; also called active Factor XII
T1 sequence (looked up) 1: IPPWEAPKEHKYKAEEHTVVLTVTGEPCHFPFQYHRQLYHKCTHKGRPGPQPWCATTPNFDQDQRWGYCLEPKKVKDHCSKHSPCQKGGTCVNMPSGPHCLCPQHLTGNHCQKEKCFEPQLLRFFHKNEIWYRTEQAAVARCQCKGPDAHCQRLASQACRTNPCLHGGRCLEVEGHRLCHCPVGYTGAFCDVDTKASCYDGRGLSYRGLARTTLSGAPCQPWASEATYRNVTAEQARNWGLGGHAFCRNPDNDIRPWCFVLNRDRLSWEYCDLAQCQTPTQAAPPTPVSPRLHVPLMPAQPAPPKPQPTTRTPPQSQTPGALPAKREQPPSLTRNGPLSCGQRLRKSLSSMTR
T1 sequence (looked up) 2: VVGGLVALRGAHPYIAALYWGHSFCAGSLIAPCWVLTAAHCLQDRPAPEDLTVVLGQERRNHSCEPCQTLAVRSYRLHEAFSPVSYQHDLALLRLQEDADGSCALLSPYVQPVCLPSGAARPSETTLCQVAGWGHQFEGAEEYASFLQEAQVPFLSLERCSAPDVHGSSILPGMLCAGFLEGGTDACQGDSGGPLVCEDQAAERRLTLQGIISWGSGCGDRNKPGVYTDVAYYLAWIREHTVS


What was measured:
Factor XIIa (FXIIa) [1] = biological target: T1, Factor XIIa (FXIIa); assay: enzyme inhibition: rate (F/s) against antibody concentration (0 to about 9000 pM), fit to the tight-binding inhibitor equation; K is Ki,app. FXIIa as the enzyme follows from the text; it is not printed in the panel [right panel]
plasma kallikrein (pKal) [2] = biological target: T2, plasma kallikrein (pKal) (UniProt P03952 20-390; P03952 391-638, limits assumed); assay: enzyme inhibition of human pKal: rate (F/s) against antibody concentration (0 to 10 nM), fit to the tight-binding equation printed in the panel; K is Ki,app. Columns are coefficient, std. error, t, P. The unit is taken from the concentration axis '[nM]' [CONT'D) B. (right panel]
T2 construct: the description speaks of human pKal; also called active pKal
T2 sequence (P03952 20-390 limits assumed, form in doubt, chain 1 of 2): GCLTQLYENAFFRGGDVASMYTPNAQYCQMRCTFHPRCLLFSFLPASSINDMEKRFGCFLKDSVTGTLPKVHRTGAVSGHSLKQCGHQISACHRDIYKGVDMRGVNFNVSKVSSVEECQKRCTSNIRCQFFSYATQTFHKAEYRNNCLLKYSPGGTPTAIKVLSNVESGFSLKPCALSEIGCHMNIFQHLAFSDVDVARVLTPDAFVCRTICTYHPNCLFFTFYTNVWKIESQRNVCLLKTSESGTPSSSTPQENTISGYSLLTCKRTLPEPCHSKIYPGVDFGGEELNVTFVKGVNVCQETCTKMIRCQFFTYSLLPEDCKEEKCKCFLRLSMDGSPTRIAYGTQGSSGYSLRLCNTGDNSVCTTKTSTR
T2 sequence (P03952 391-638 limits assumed, form in doubt, chain 2 of 2): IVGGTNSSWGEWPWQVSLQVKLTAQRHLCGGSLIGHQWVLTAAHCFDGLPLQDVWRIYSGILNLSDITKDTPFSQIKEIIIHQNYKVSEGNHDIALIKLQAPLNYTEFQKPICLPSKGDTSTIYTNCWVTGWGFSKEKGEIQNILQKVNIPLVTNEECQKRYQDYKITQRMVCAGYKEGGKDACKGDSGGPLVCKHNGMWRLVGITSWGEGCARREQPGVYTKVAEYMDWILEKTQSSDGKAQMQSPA

plasma kallikrein (pKal) [3] = biological target: T2, plasma kallikrein (pKal); assay: enzyme inhibition assay, apparent Ki
Factor XIIa (FXIIa) [4] = biological target: T1, Factor XIIa (FXIIa); assay: enzyme inhibition assay, apparent Ki
plasma kallikrein (pKal) [5] = biological target: T2, plasma kallikrein (pKal); assay: enzyme inhibition, corrected Ki,app, control plate 2
plasma kallikrein (pKal) [6] = biological target: T2, plasma kallikrein (pKal); assay: enzyme inhibition, corrected Ki,app, control plate 1
plasma kallikrein (pKal) [7] = biological target: T2, plasma kallikrein (pKal); assay: enzyme inhibition of human pKal: rate (F/s) against antibody concentration (0 to 10 nM), fit to the tight-binding equation printed in the panel; K is Ki,app. Columns are coefficient, std. error, t, P. The unit is taken from the concentration axis '[nM]' [CONT'D) B. (left panel]
plasma kallikrein (pKal) [8] = biological target: T2, plasma kallikrein (pKal); assay: pKal enzyme inhibition, Ki,app, control

Binder | Ki (Factor XIIa (FXIIa) [1]) [nM] | Ki (plasma kallikrein (pKal) [2]) [nM] | Ki (plasma kallikrein (pKal) [3]) [nM] | Ki (Factor XIIa (FXIIa) [4]) [nM] | Ki (plasma kallikrein (pKal) [5]) [nM] | Ki (plasma kallikrein (pKal) [6]) [nM] | Ki (plasma kallikrein (pKal) [7]) [nM] | Ki (plasma kallikrein (pKal) [8])
620I-X0177-A01 (bispecific antibody, human IgG1, kappa, 620I-X0136-D12 with germlined, gene-optimized scFv and VH44-VL100 disulfide; also called 620I-X0173-A11; 620I-X0136-D12 with H44/L100 engineered disulfide bond) heavy: not shown light: DIQMTQSPSTLSASVGDRVTITCRASQSISSWLAWYQQKPGKAPKLLIYKASTLESGVPSRFSGSGSGTEFTLTISSLQPDDFATYYCQQYNTYWTFGQGTKVEIKRTVAAPSVFIFPPSDEQLKSGTASVVCLLNNFYPREAKVQWKVDNALQSGNSQESVTEQDSKDSTYSLSSTLTLSKADYEKHKVYACEVTHQGLSSPVTKSFNRGEC | 0.0726 | 0.39 | 0.389 | 0.073 |  |  |  | 
DX-2930 (antibody, human IgG1, kappa, V domains shown, Anti-pKal IgG1; also called H03) VH: EVQLLESGGGLVQPGGSLRLSCAASGFTFSHYIMMWVRQAPGKGLEWVSGIYSSGGITVYADSVKGRFTISRDNSKNTLYLQMNSLRAEDTAVYYCAYRRIGVPRRDEFDIWGQGTMVTVSS VL: DIQMTQSPSTLSASVGDRVTITCRASQSISSWLAWYQQKPGKAPKLLIYKASTLESGVPSRFSGSGSGTEFTLTISSLQPDDFATYYCQQYNTYWTFGQGTKVEIKR |  |  |  |  | 0.138 | 0.16 | 0.202 | 0.127 nM and 0.131 nM and 0.151 nM
